Measurements published in patent publication US20240033354A1.

Target: TcdB1 holotoxin (recombinant full-length TcdB1, VPI10463 strain, expressed in Bacillus megaterium) (Clostridium difficile, VPI10463 strain) (UniProt P18177)
Assay: cell-based or functional assay

Substance: Fab fragment of bezlotoxumab
- cell rounding assay on HeLa cells, TcdB1 10 pM, 6 h: reduction of cell-rounding at 2 µM (% reduction of cell-rounding at 2 µM): 40
